Source: US20210206838A1

Columns and labels:
Assay in all cases: cell-based or functional assay
[1] = target: envelope glycoprotein of HIV pseudovirus 6952.v1.c20 (human immunodeficiency virus (HIV))
[2] = target: envelope glycoprotein of HIV pseudovirus 263-8 (human immunodeficiency virus (HIV))
[3] = target: HIV pseudovirus SC05.8C11.2344 (envelope glycoprotein) (HIV)
[4] = target: HIV pseudovirus BB1012-11.TC21 (envelope glycoprotein) (human immunodeficiency virus (HIV))
[5] = target: HIV pseudovirus 0260.v5.c36 (envelope glycoprotein) (human immunodeficiency virus (HIV))
[6] = target: HIV pseudovirus 0260.v5.c36 (envelope glycoprotein) (HIV)
[7] = target: HIV pseudovirus Du172.17 (envelope glycoprotein) (HIV)
[8] = target: HIV pseudovirus Du172.17 (envelope glycoprotein) (human immunodeficiency virus (HIV))
[9] = target: envelope glycoprotein of HIV pseudovirus Ce1176_A3 (human immunodeficiency virus (HIV))
[10] = target: HIV pseudovirus Ce1176_A3 (envelope glycoprotein) (HIV)
[11] = target: HIV pseudovirus RHPA4259.7 (envelope glycoprotein) (human immunodeficiency virus (HIV))
[12] = target: envelope glycoprotein of HIV pseudovirus X1193_c1 (human immunodeficiency virus (HIV))
[13] = target: HIV pseudovirus SC422661.8 (envelope glycoprotein) (human immunodeficiency virus (HIV))
[14] = target: HIV pseudovirus CNE52 (envelope glycoprotein) (HIV)
[15] = target: HIV pseudovirus RHPA4259.7 (envelope glycoprotein) (HIV)
[16] = target: envelope glycoprotein of HIV pseudovirus AC10.0.29 (human immunodeficiency virus (HIV))
[17] = target: HIV pseudovirus CNE52 (envelope glycoprotein) (human immunodeficiency virus (HIV))
[18] = target: envelope glycoprotein of HIV pseudovirus SC05.8C11.2344 (human immunodeficiency virus (HIV))

Substance: Control (antibody)
- IC50 [1]: 0.053 µg/mL
- IC80 [1]: 0.373 µg/mL
- IC50 [2]: 1.12 µg/mL
- IC80 [2]: 9.37 µg/mL
- neutralization IC50 [3]: 0.019 µg/mL
- neutralization IC80 [3]: 0.071 µg/mL
- neutralization IC50 [4]: 0.005 µg/mL
- neutralization IC80 [4]: 0.021 µg/mL
- neutralization IC50 [5]: 0.027 µg/mL
- neutralization IC80 [5]: 0.105 µg/mL
- neutralization IC50 [6]: 0.051 µg/mL
- neutralization IC80 [6]: 0.143 µg/mL
- neutralization IC50 [7]: 0.051 µg/mL
- neutralization IC80 [7]: 0.672 µg/mL
- neutralization IC50 [8]: 0.013 µg/mL
- neutralization IC80 [8]: 0.198 µg/mL
- IC50 [9]: 0.018 µg/mL
- IC80 [9]: 0.049 µg/mL
- neutralization IC50 [10]: 0.02 µg/mL
- neutralization IC80 [10]: 0.076 µg/mL
- neutralization IC50 [11]: 0.011 µg/mL
- neutralization IC80 [11]: 0.033 µg/mL
- IC50 [12]: 0.019 µg/mL
- IC80 [12]: 0.065 µg/mL
- neutralization IC50 [13]: 0.028 µg/mL
- neutralization IC80 [13]: 0.126 µg/mL
- neutralization IC50 [14]: 2.92 µg/mL
- neutralization IC80 [14]: 17.8 µg/mL
- neutralization IC50 [15]: 0.018 µg/mL
- neutralization IC80 [15]: 0.047 µg/mL
- IC50 [16]: 0.033 µg/mL
- IC80 [16]: 0.117 µg/mL
- neutralization IC50 [17]: 0.904 µg/mL
- neutralization IC80 [17]: 16.8 µg/mL
- IC50 [18]: 0.018 µg/mL
- IC80 [18]: 0.084 µg/mL
